Measurements published in article PMC11564870.

B1: SoxOct canonical (dsDNA)
DNA 1: GCGGCATTGTCATGCAAATCGGCGG
DNA 2: CCGCCGATTTGCATGACAATGCCGC
B2: Sox consensus (dsDNA)
DNA 1: GGCGGCGGCATTGTCCGGCGCGCGG
DNA 2: CCGCGCGCCGGACAATGCCGCCGCC

What was measured:
mOct4 POU;mSox2 HMG = mOct4 POU;mSox2 HMG (mouse;mouse, UniProt P20263;P48432 131-282;41-119, |); experiment: EMSA
Monbr Sox-like HMG = target: T1, Monbr Sox-like HMG (Monosiga brevicollis, UniProt A9VCR9 107-175); experiment: EMSA
T1 sequence: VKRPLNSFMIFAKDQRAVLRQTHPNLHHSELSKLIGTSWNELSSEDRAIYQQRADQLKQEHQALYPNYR

mOct4 POU;mSox2 HMG, sequence (P20263 131-282, chain 1 of 2): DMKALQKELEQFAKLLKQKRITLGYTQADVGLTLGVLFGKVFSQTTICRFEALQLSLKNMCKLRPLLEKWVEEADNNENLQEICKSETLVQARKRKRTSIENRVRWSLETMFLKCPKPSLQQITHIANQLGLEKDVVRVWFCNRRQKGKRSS
mOct4 POU;mSox2 HMG, sequence (P48432 41-119, chain 2 of 2): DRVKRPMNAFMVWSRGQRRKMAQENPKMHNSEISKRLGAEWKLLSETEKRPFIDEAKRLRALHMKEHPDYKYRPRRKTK

Binder | binding result (mOct4 POU;mSox2 HMG) | binding result (Monbr Sox-like HMG)
B1 | binds | 
B2 |  | no binding
